B1: Retinoic acid receptor RXR-alpha, residues 132 to 208; numbered along this chain, P19793 (parent)
chain: KHICAICGDRSSGKHYGVYSCEGCKGFFKRTVRKDLTYTCRDNKDCLIDKRQRNRCQYCRYQKCLAMGMKREAVQEE

Variants of: B1
Assay: abundance fitness (aPCA) (normalised: wild type 0, dead -1); higher = more abundant; growth selection in yeast, the domain comes from the species named
Details: Homo sapiens

Abundance fitness of substitutions, site by site:
C21: Q -1.02, A -1.07, Y -0.676, N -0.803, T -1.05, H -0.933, I -1.12, G -0.956, W -1.03, E -0.845, L -0.986, P -0.9, S -0.98, F -0.962, M -0.827, D -0.413
F28: P -0.906, S -0.824, M 0.024, Y -0.13, C -0.753, I -0.289, A -0.49, K -1.13, L -0.316, R -0.917, H -0.495, D -0.57, V -0.321, E -0.289, N -0.653, W -0.024, T -0.894
F27: S 0.004
K29: F -0.035, D -0.013, A 0.05, L 0.009, H -0.074, N 0.027, E 0.028, I -0.163, M 0.038, G 0.025, C -0.223
C24: N -1.18, V -0.917, Q -0.891, H -0.971, Y -1.09, D -0.049, I -0.987, E -0.559, S -1, M -1.18, G -0.945, W -1.01, A -0.875, R -0.958, P -0.904, F -0.889, K -1.15, L -1.01
G13: S -0.121, F -0.114, A 0.02, N 0.048, T -0.005, E 0.059, P -0.118, V -0.067, R -0.024, Q -0.009, H 0.025, D 0.019, I -0.367, M -0.042, K 0.084, Y 0.017, W -0.659, L -0.082, C -0.707
K14: T -0.039, F 0.017, N -0.028, I -0.112, V -0.057, E -0.034, Q 0, D 0.018, M 0.001, S -0.04, R -0.115, C -0.027, H -0.414, W -0.013, G -0.004, L -0.094, P -0.004, Y -0.218, A -0.027
H15: T -0.24, F -0.064, V -0.098, W -0.078, S -0.196, M -0.234, I -0.181, L -0.138, G -0.056, E -0.065, Q -0.007, K -0.138, A -0.13, P -0.034, C -0.081, D -0.08, Y -0.05, R -0.039
E22: M -0.136, K 0.015, R -0.002, C -0.043, S -0.063, V -0.053, Y -0.135, Q -0.094, A -0.048, I -0.011, D -0.062, G 0.031, F -0.097, W -0.007, P -0.037, N -0.079, H -0.104
S11: L -0.142, D -0.014, N -0.084, H -0.019, G -0.116, F -0.087, V -0.179, P 0.072, Q -0.101, T -0.089, E -0.072, I -0.113, M -0.111, A -0.054, W -0.066, R -0.162, C -0.015, Y -0.096
Y16: W -0.015, S 0.014, K -0.092, F 0.06, R -0.055, Q 0.063, P -0.082, H -0.031, C -0.013, M -0.001, A 0.011, D 0.046, V 0.004, T -0.04, N -0.089, G 0.015, L -0.035, E 0.078
R10: D -0.047, V -0.199, S -0.046, C -0.053, L -0.131, E -0.059, W -0.044, N -0.024, M -0.099, H -0.051, F -0.064, A -0.139, G -0.072, K -0.025, Y -0.028, T -0.024, I -0.021
G23: H -0.089, S -0.288, D 0.049, K -0.128, C -0.258, E -0.039, F -0.424, M -0.305, N -0.269, V -0.144, I -0.407, T -0.256, Y -0.312, L -0.407, P -0.126, A -0.082, R -0.037, Q -0.157, W -0.015
S20: M -0.027, C 0.049, N 0.031, Q 0.012, L 0.05, R -0.571, V 0.035, W 0.045, Y -0.025, I 0.019, D -0.276, G 0.065, E -0.202, A 0.047, H 0.015, P -0.09
S12: A 0.044, T 0.114, Q 0.104, L 0.019, H -0.131, W -0.072, K 0.137, V 0.018, F -0.112, P 0.062, E 0.101, I -0.196, C -0.657, D 0.001, G 0.072, R 0.123, N 0.091
G8: Y -0.044, S -0.041, N -0.017, Q 0.043, W -0.1, L -0.179, P -0.227, T 0.016, M -0.07, R -0.125, V -0.228
Y19: K -0.032, I -0.107, S -0.067, E -0.047, M -0.015, L -0.04, H -0.068, A -0.036, P 0.006, T -0.073, C -0.116, G -0.207, D -0.041, R -0.097
G26: W -0.052, F -0.138, R -0.018, L -0.132, A 0.002, V 0.007, H -0.021, M -0.071, N -0.123, Q 0.038, I -0.116, P -0.503, D 0.024, C -0.077, E -0.043, Y -0.081, S -0.087
D9: A -0.091, N -0.05, L -0.708, W -0.141, E 0.098, Q 0.033, M -0.354, F -0.321, S -0.137, K 0.03, G -0.166, H -0.214, R -0.243, T -0.089, I -0.455, V -0.424, C -0.898, P -0.662
V18: L -0.141, H -0.356, P -0.18, T -0.357, G 0.013, F -0.144, A -0.133, Y -0.262, N -0.574, C -0.078, M -0.147, R -0.227, E 0.01, D -0.205, S -0.328, I -0.142
G17: Q -0.089, P -0.277, H -0.053, D 0.031, K -0.085, L -0.107, C -0.002, N 0.056, R -0.095, M 0.025, Y -0.1, I -0.275, F -0.088, E 0.005, A -0.106, S -0.029, W -0.163
